Laboratory results: publication doi:10.1101/2022.04.18.488654, “The DNA replication initiation protein DnaD is recruited to a specific strand of the Bacillus subtilis chromosome origin” (bioRxiv, 2022)

Columns and labels:
[1] = molecular target: the molecule itself; test: SEC-MALS; purified DnaD variants; 20°C; 40 mM Tris-HCl pH 8, 500 mM NaCl, 1 mM EDTA, 20 mM imidazole, 2.5% v/v glycerol
[2] = molecular target: the molecule itself; test: SEC; Superdex 200 Increase 10/300GL, 4°C; 40 mM Tris-HCl pH 8, 500 mM NaCl, 1 mM EDTA, 20 mM imidazole
DnaD L22A = molecular target: T1, DnaD L22A (Bacillus subtilis 168CA, UniProt P39787 1-232, L22A); test: fluorescence polarisation; FP: 10 mM HEPES-KOH pH 7.5, 1 mM Mg acetate, 100 mM K glutamate, 20 C, 10 min, 1.875 nM DNA; crosslinking buffer not in material; details: protein: recombinant; tags: His14-SUMO tag cleaved; label: fluorescein
T1 sequence: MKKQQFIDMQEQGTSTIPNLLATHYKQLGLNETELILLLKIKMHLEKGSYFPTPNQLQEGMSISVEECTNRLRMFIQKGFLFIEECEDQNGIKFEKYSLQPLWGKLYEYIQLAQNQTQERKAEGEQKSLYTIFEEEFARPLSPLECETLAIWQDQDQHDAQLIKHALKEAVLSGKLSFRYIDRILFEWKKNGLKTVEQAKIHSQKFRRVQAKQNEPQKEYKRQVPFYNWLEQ

DnaD F6A = molecular target: T2, DnaD F6A (Bacillus subtilis 168CA, UniProt P39787 1-232, F6A); test: fluorescence polarisation; similar to WT; FP: 10 mM HEPES-KOH pH 7.5, 1 mM Mg acetate, 100 mM K glutamate, 20 C, 10 min, 1.875 nM DNA; crosslinking buffer not in material; details: protein: recombinant; tags: His14-SUMO tag cleaved; chain copies: 2; label: fluorescein
T2 sequence: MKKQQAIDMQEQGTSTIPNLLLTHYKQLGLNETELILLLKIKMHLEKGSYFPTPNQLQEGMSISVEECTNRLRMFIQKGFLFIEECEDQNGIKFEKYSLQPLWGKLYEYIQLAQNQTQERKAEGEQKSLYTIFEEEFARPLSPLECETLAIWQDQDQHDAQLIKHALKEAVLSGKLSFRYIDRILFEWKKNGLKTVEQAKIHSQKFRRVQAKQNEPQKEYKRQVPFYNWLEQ

Binder	stoichiometry N [1]	binding result (DnaD L22A)	also measured
DnaD (wild-type, Bacillus subtilis DNA replication initiation protein) (natural protein, UniProt P39787 1-232, looked up, DnaD, Bacillus subtilis 168CA, amplified from genomic DNA; full-length protein; Tetramer by SEC-MALS and SEC; in the cryo-EM map only a dimer was seen; also called wild-type DnaD; full length DnaD; source: E. coli BL21(DE3)-pLysS, purified (HisTrap, SUMO protease digestion, reverse HisTrap)) MKKQQFIDMQEQGTSTIPNLLLTHYKQLGLNETELILLLKIKMHLEKGSYFPTPNQLQEGMSISVEECTNRLRMFIQKGFLFIEECEDQNGIKFEKYSLQPLWGKLYEYIQLAQNQTQERKAEGEQKSLYTIFEEEFARPLSPLECETLAIWQDQDQHDAQLIKHALKEAVLSGKLSFRYIDRILFEWKKNGLKTVEQAKIHSQKFRRVQAKQNEPQKEYKRQVPFYNWLEQ	4	–	–
DnaD^1-205 (truncation lacking the entire C-terminal tail) (domain or fragment, Bacillus subtilis, UniProt P39787 1-205, looked up, DnaD, Bacillus subtilis 168CA, residues 1-205 (entire C-terminal tail removed); also called truncation of the DnaD^CTT; source: E. coli BL21(DE3)-pLysS, purified (HisTrap, SUMO protease digestion, reverse HisTrap)) MKKQQFIDMQEQGTSTIPNLLLTHYKQLGLNETELILLLKIKMHLEKGSYFPTPNQLQEGMSISVEECTNRLRMFIQKGFLFIEECEDQNGIKFEKYSLQPLWGKLYEYIQLAQNQTQERKAEGEQKSLYTIFEEEFARPLSPLECETLAIWQDQDQHDAQLIKHALKEAVLSGKLSFRYIDRILFEWKKNGLKTVEQAKIHSQK	4	–	–
DnaD^1-224 (truncation lacking the DnaB interaction region, the last eight residues) (domain or fragment, Bacillus subtilis, UniProt P39787 1-224, looked up, DnaD, Bacillus subtilis 168CA, residues 1-224 (lacks the last eight amino acid residues of the C-terminal tail); also called C-terminal truncation; source: E. coli BL21(DE3)-pLysS, purified (HisTrap, SUMO protease digestion, reverse HisTrap)) MKKQQFIDMQEQGTSTIPNLLLTHYKQLGLNETELILLLKIKMHLEKGSYFPTPNQLQEGMSISVEECTNRLRMFIQKGFLFIEECEDQNGIKFEKYSLQPLWGKLYEYIQLAQNQTQERKAEGEQKSLYTIFEEEFARPLSPLECETLAIWQDQDQHDAQLIKHALKEAVLSGKLSFRYIDRILFEWKKNGLKTVEQAKIHSQKFRRVQAKQNEPQKEYKRQV	–	–	stoichiometry N [2]: 4
TTTTTTTTTTTTTTTTTT (ssDNA) [polyT18 (oCW1088)]	–	no binding	binding result (DnaD F6A): binds
TTTTTTTTTTTTTTTTTTTTTTTTTTTTTTTTTTTTTTTT (ssDNA) [polyT40 (oCW837)]	–	no binding	–
